Experiments:
[1] = target: HRP-labelled Concavalin A (UniProt P02866); experiment: capillary displacement of HRP-labelled Concavalin A from immobilised yeast mannoprotein; platform of Example 2; HRP substrate, spectrophotometer
[2] = target: HRP-labelled Concavalin A (UniProt P02866); experiment: capillary displacement of HRP-labelled Concavalin A from immobilised yeast mannoprotein; platform of Example 4; HRP substrate, spectrophotometer
[3] = target: HRP-labelled Concavalin A (UniProt P02866); experiment: capillary displacement of HRP-labelled Concavalin A from immobilised yeast mannoprotein; platform of Example 3; HRP substrate, spectrophotometer

UniProt P02866, sequence (P02866 30-281 limits assumed): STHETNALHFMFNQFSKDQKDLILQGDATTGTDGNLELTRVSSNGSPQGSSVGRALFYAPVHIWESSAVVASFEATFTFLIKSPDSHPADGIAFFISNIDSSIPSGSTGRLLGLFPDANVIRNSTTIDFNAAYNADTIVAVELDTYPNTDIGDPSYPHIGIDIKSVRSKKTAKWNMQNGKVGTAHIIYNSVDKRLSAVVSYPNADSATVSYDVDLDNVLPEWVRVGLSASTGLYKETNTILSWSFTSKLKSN

polystyrene beads with immobilised yeast mannoprotein
absorbance at 446-456 nm (absorbance (456 nm)) [1]: 3 | absorbance at 446-456 nm (absorbance (446 nm)) [2]: > 4 | absorbance at 446-456 nm (absorbance (446 nm)) [3]: 2.22

yeast mannoprotein
absorbance at 446-456 nm (absorbance (446 nm)) [2]: 2.5 | absorbance at 446-456 nm (absorbance (448.5 nm)) [3]: 2.7
